Measured values from patent US20100285597A1, “DETECTION OF FRAGMENTS OF NECTIN-1 FOR THE DIAGNOSIS OF ALZHEIMER'S DISEASE” (UNIVERSITY OF ROCHESTER, priority 2007, published 2010).
Changes are numbered by the printed parent chain. Names and notes keep the numbering of the source. Values belong to the molecule of their own block, whether it stands above or below them.

Columns and labels:
[1] = biological target: T1, BACE1 (Homo sapiens, UniProt P56817); assay: Co-immunoprecipitation of nectin-1 truncation mutants with BACE1 co-expressed in HEK 293 cells; assay type: binding; details: 48 hr. after transfection
T1 construct: expressed in transfected cells; host or cells: HEK 293
T1 sequence (P56817 46-501, species assumed): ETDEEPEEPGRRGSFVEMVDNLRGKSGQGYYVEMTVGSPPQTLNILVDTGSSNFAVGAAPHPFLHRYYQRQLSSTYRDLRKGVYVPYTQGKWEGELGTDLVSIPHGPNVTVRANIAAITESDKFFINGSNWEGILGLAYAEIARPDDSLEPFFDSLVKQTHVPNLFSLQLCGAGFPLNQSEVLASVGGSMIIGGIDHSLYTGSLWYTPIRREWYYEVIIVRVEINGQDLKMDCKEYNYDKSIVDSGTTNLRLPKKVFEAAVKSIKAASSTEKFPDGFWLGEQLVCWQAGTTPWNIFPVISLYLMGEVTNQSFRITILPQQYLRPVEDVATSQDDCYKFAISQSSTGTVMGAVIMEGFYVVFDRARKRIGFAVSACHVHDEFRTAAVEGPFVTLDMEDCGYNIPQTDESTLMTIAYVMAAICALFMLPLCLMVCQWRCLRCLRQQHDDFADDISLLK
Method: To define the minimal region within the ectodomain of nectin-1 required for BACE1 interaction, immunoprecipitations between the nectin-1 truncation mutants and BACE1 were performed. BACE1 and full length or truncated nectin-1 were co-expressed in HEK 293 cells and harvested 48 hr. after transfection. To confirm to the efficiencies of the co-transfections, equal volumes of cell lysate were loaded on SDS-PAGE gels and analyzed by Western blot. Transfection efficiency was similar for nectin-1 and its derivates (FIG. 10A) and BACE1 (FIG. 10B). Immunoprecipitation was performed with a nectin-1 cytoplasmic specific antibody and precipitates were analyzed on two separate 10% SDS-PAGE. Western blots were probed with anti-nectin-1 (FIG. 10C) or anti-BACE1 (FIG. 10D) antibodies. The nectin-1 antibody directly immunoprecipitated the respective nectin-1 polypeptides and processed CTFs (FIG. 10C). Furthermore, BACE1, both monomer and dimer, was immunoprecipitated by the nectin-1 antibody, confirming the association of BACE1 with nectin-1.

[2] = tested on: processing of wild type nectin-1; assay: Co-transfection of nectin-1 mutants with wild-type nectin-1 in HEK 293 cells, Western blot of CTF bands; assay type: cell-based; details: 0.5 μg wild-type nectin-1 plasmid, 24 hr. post-transfection
Method: Mutants T310A and Y311A were tested to see if they would interfere with the processing of wild type nectin-1. HEK 293 cells were co-transfected with 0.5 μg of a plasmid containing wild-type nectin-1 and with a plasmid containing no insert (control), green fluorescent protein (GFP), nectin-1 T310A or nectin-1 Y311A. Co transfection efficiency was approximately 85%. Cells were harvested 24 hr. post-transfection and samples were analyzed on a 12% SDS-PAGE gel. […] Co-transfection with vector alone or GFP had no effect on nectin-1 processing. […] The residual CTF bands detected in the T310A and Y311A samples are likely due to the 15% of the cell population that received only the wild type nectin-1 construct.

[3] = biological target: T1, BACE1; assay: Co-immunoprecipitation of nectin-1 point mutants with BACE1 co-expressed in HEK 293 cells; assay type: binding; details: 48 hr. after transfection
Method: To express how these point mutations affect the association of nectin-1 with BACE1, physical association of the mutants was examined by immunoprecipitation. We co-expressed BACE1 and nectin-1 or one of the cleavage refractory point mutants in HEK 293 cells. Cells were harvested and lysed in lysis buffer 48 hr. after transfection. To confirm the co-transfection efficiency of nectin-1 or it derivatives and BACE1, equal volumes of cell lysates were analyzed by 10% SDS-PAGE followed by Western blotting. Transfection efficiencies for nectin-1 and derivatives and BACE1 were similar in each sample (FIG. 12A—nectin-1, FIG. 12B—BACE1). Co-expression of nectin-1 with BACE1 increased the amount of CTF bands compared to nectin-1 alone (FIG. 12A, lanes 3 and 4).
Immunoprecipitation was performed using a C-terminal specific nectin-1 antibody. […] The intensities of nectin-1 CTF bands were much stronger when nectin-1 was co-expressed with BACE1. BACE1 was also detected in nectin-1 complexes (FIG. 12D).

B2: Δ28-300: nectin-1 ectodomain truncation mutant, V5 and flag tagged (protein)
chain: GPINYSLAGTYICEATNPIGTRSGQVEVNITEFPYTPSPPEHGRRAGPVPTAIIGGVAGSILLVLIVVGGIVVALRRRRHTFKGDYSTKKHVYGNGYSKAGIPQHHPPMAQNLQYPDDSDDEKKAGPLGGSSYEEEEEEEEGGGGGERKVGGPHPKYDEDAKRPYFTVDEAEARQDGYGDRTLGYQYDPEQLDLAENMVSQNDGSFISKKEWYV
modifications: left off: small tags and cut ends
notes: nectin-1 ectodomain truncation mutant, V5 and flag tagged
association with BACE1 (co-immunoprecipitation with nectin-1 antibody) [1]: interacted with BACE1 very strongly

B5: Δ28-312: nectin-1 ectodomain truncation mutant, V5 and flag tagged (protein)
chain: CEATNPIGTRSGQVEVNITEFPYTPSPPEHGRRAGPVPTAIIGGVAGSILLVLIVVGGIVVALRRRRHTFKGDYSTKKHVYGNGYSKAGIPQHHPPMAQNLQYPDDSDDEKKAGPLGGSSYEEEEEEEEGGGGGERKVGGPHPKYDEDAKRPYFTVDEAEARQDGYGDRTLGYQYDPEQLDLAENMVSQNDGSFISKKEWYV
modifications: left off: small tags and cut ends
notes: as for B2
association with BACE1 (co-immunoprecipitation with nectin-1 antibody) [1]: Association with BACE1 was also detected

B6: Δ28-250: nectin-1 ectodomain truncation mutant, V5 and flag tagged (protein)
chain: FDGNWYLQRMDVKLTCKADANPPATEYHWTTLNGSLPKGVEAQNRTLFFKGPINYSLAGTYICEATNPIGTRSGQVEVNITEFPYTPSPPEHGRRAGPVPTAIIGGVAGSILLVLIVVGGIVVALRRRRHTFKGDYSTKKHVYGNGYSKAGIPQHHPPMAQNLQYPDDSDDEKKAGPLGGSSYEEEEEEEEGGGGGERKVGGPHPKYDEDAKRPYFTVDEAEARQDGYGDRTLGYQYDPEQLDLAENMVSQNDGSFISKKEWYV
modifications: left off: small tags and cut ends
notes: as for B2
association with BACE1 (co-immunoprecipitation with nectin-1 antibody) [1]: interacted with BACE1 very strongly

B7: T310A: T310A point mutant of nectin-1 (protein, listed as Homo sapiens)
chain: MARMGLAGAAGRWWGLALGLTAFFLPGVHSQVVQVNDSMYGFIGTDVVLHCSFANPLPSVKITQVTWQKSTNGSKQNVAIYNPSMGVSVLAPYRERVEFLRPSFTDGTIRLSRLELEDEGVYICEFATFPTGNRESQLNLTVMAKPTNWIEGTQAVLRAKKGQDDKVLVATCTSANGKPPSVVSWETRLKGEAEYQEIRNPNGTVTVISRYRLVPSREAHQQSLACIVNYHMDRFKESLTLNVQYEPEVTIEGFDGNWYLQRMDVKLTCKADANPPATEYHWTTLNGSLPKGVEAQNRTLFFKGPINYSLAGAYICEATNPIGTRSGQVEVNITEFPYTPSPPEHGRRAGPVPTAIIGGVAGSILLVLIVVGGIVVALRRRRHTFKGDYSTKKHVYGNGYSKAGIPQHHPPMAQNLQYPDDSDDEKKAGPLGGSSYEEEEEEEEGGGGGERKVGGPHPKYDEDAKRPYFTVDEAEARQDGYGDRTLGYQYDPEQLDLAENMVSQNDGSFISKKEWYV
production of CTF bands of co-transfected wild type nectin-1 [2]: substantially reduced
intensity of BACE1 bands co-precipitated, compared with wild type nectin-1 [3]: much greater than that precipitated by wild type nectin-1

B8: Y311A: Y311A point mutant of nectin-1 (protein, listed as Homo sapiens)
chain: B7 chain with A313T, Y314A
production of CTF bands of co-transfected wild type nectin-1 [2]: substantially reduced
intensity of BACE1 bands co-precipitated, compared with wild type nectin-1 [3]: much greater than that precipitated by wild type nectin-1

More lines, now with the values ahead:

association with BACE1 (co-immunoprecipitation with nectin-1 antibody) [1]: did not associate with BACE1
B1: Δ28-349: nectin-1 ectodomain truncation mutant, V5 and flag tagged (protein)
chain: PTAIIGGVAGSILLVLIVVGGIVVALRRRRHTFKGDYSTKKHVYGNGYSKAGIPQHHPPMAQNLQYPDDSDDEKKAGPLGGSSYEEEEEEEEGGGGGERKVGGPHPKYDEDAKRPYFTVDEAEARQDGYGDRTLGYQYDPEQLDLAENMVSQNDGSFISKKEWYV
modifications: left off: small tags and cut ends
notes: as for B2

association with BACE1 (co-immunoprecipitation with nectin-1 antibody) [1]: Association with BACE1 was also detected
B3: Δ28-324: nectin-1 ectodomain truncation mutant, V5 and flag tagged (protein)
chain: QVEVNITEFPYTPSPPEHGRRAGPVPTAIIGGVAGSILLVLIVVGGIVVALRRRRHTFKGDYSTKKHVYGNGYSKAGIPQHHPPMAQNLQYPDDSDDEKKAGPLGGSSYEEEEEEEEGGGGGERKVGGPHPKYDEDAKRPYFTVDEAEARQDGYGDRTLGYQYDPEQLDLAENMVSQNDGSFISKKEWYV
modifications: left off: small tags and cut ends
notes: as for B2

association with BACE1 (co-immunoprecipitation with nectin-1 antibody) [1]: Association with BACE1 was also detected
B4: Δ28-333: nectin-1 ectodomain truncation mutant, V5 and flag tagged (protein)
chain: PYTPSPPEHGRRAGPVPTAIIGGVAGSILLVLIVVGGIVVALRRRRHTFKGDYSTKKHVYGNGYSKAGIPQHHPPMAQNLQYPDDSDDEKKAGPLGGSSYEEEEEEEEGGGGGERKVGGPHPKYDEDAKRPYFTVDEAEARQDGYGDRTLGYQYDPEQLDLAENMVSQNDGSFISKKEWYV
modifications: left off: small tags and cut ends
notes: as for B2
